The values below come from the supplement of paper PMC9170038.

In this data set the test system is MS2 coat protein. Put plainly: apparent KD of MS2 coat protein; designed switch direction (-1 OFF switch, 1 ON switch): -1; higher = weaker reporter binding. Summed up:
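Transcription of designed RNA switches on Illumina chips was done by stalled E. coli RNA polymerase. SNAP-549-labelled MS2 coat protein was then titrated in doubling steps from 0.7 or 1.5 nM to 3 µM, with steps of 0.8–1.5 h at the lowest and 10–20 min at the highest concentration. The per-design median over clusters of curve-fitted normalised fluorescence is reported as apparent KD.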

Where [1] appears, read: Eterna round: R95, input ligand: FMN 200 uM.
Where [2] appears, read: Eterna round: R95, input ligand: microRNA oligo, concentration not stated.
The mark [3] stands for this setting: Eterna round: R95, input ligand: none.
Where [4] appears, read: input ligand: microRNA oligo, concentration not stated.

As for “CCGGCUGCUGUGAGGAUAUGCCUGUGGGUGCGUGGGCAGAAGGCACAUGAGGAUCACCCAUGUCCUGCGGUCCC [salish99_bmx4_r4_114] (Eterna round: R97, puzzle: Brourd's mod of Exclusion 4)”, the “apparent KD of MS2 coat protein” value by setting is: (input ligand: FMN 200 uM) 21 nM; (input ligand: none) 26.6 nM.
“UUGUAGGGAGGAUAUCAGAAGCUCCACAUGAGGAUCACCCAUGUAGCCGCUGCUGGAUUCUGAGAAGGCUUGGGUU [Eternabot (L2) Solution 8] (Eterna round: R97, puzzle: Exclusion 5)”: the “apparent KD of MS2 coat protein” value reads like this: (input ligand: FMN 200 uM) 58.8 nM; (input ligand: none) 58.3 nM.
For “UUUUUACAUGAGGAUCACCCAUGUGAGGAUAUGGAGCGCGACCGCGCGGUCGCGUACACCAGAAGGCGCAGGAA [1st #75] (Eterna round: R97, puzzle: Exclusion 1)”, the “apparent KD of MS2 coat protein” value is, setting by setting: (input ligand: FMN 200 uM) 30.6 nM; (input ligand: none) 24.9 nM.
“CUGAGGUAGCGGUCCUAUGACAUGAGGAUCACCCAUGUACCUUGCUAUAAGCUUUUUGCUCGUCUUAUGAUUCUCGG [JL Atriat mod 7] (puzzle: Sensor v3, turn-off variant 1)”: the “apparent KD of MS2 coat protein” value came to 246 nM under setting [1], 713 nM under setting [2] and 302 nM under setting [3].
With “CUAAAUCAUGUAGGAUAUGCGUGGCAAAGCUAUGCAGAAGGACAUGAGGAUCACCCAUGUCAUUCCGUCUGGAAACAGACGGGA [Mat - Exclusion NG 1 - Mod of JL - D53] (Eterna round: R96, puzzle: Exclusion NG 1)”, the “apparent KD of MS2 coat protein” value is 283 nM (input ligand: FMN 200 uM), 18.1 nM under setting [4] and 22.8 nM (input ligand: none).
For “CAUACAGUAGUCAGGAUAUUGGAAGAGACACGGAACGAGAAGGGACAUGAGGAUCACCCAUGUAUACUGUAAAG [EX-4 Malc #4] (Eterna round: R96, puzzle: Brourd's mod of Exclusion 4)”, the “apparent KD of MS2 coat protein” value reads like this: (input ligand: FMN 200 uM) 22.3 nM; under setting [4], 25.5 nM; (input ligand: none) 29.9 nM.
“AAUACACAUGAGGAUCACCCAUGUCAGGAUAUGCGGAAUAAGACUUUGGUCGAUAAAUGUAGAAGGGACGUUUA [Dr. RN-Ant/Googlypuddle] (puzzle: Exclusion 1)”: the “apparent KD of MS2 coat protein” value under setting [2] turned out to be 27.7 nM.
On to “CACCAUCGUGUAAGGAUAUCGAGGCUUAGCGGGUGUGAGAAGGUACAUGAGGAUCACCCAUGUUACGAUUUGCG [Eternabot (L1) Solution 77] (Eterna round: R97, puzzle: Brourd's mod of Exclusion 4)”, for which the “apparent KD of MS2 coat protein” value reads like this: (input ligand: FMN 200 uM) 28.8 nM; (input ligand: none) 25.6 nM.
Regarding “AGCUGUGGCCGAGGAUAUACAAUAACGAUGAGUGGAUUACACUCUUCGACAUGAGGAUCACCCAUGUAGAAGGCGGUCUCAGCA [Eli eng2 - 001] (Eterna round: R96, puzzle: Exclusion NG 2)”, the “apparent KD of MS2 coat protein” value is 41.3 nM (input ligand: FMN 200 uM), 14.6 nM under setting [4] and 18 nM (input ligand: none).
For “UUUUAACAUGAGGAUCACCCAUGUGAGGAUAUCGAAAUUUAUAUUUAUAUUUAUAUUUCGAGAAGGCACAUUUU [JMF 97] (puzzle: Exclusion 1)”, the “apparent KD of MS2 coat protein” value under setting [2] is 131 nM.
On to “ACUUACUGAGGAUAUACUUAGAUUUACAUGAGGAUCACCCAUGUUCCUCUAUGUAUAUAUGUAGAAGGCAGAAGAA [JL-ex5-4.35 Malcolm mod] (Eterna round: R97, puzzle: Exclusion 5)”, for which the “apparent KD of MS2 coat protein” value was determined as 120 nM (input ligand: FMN 200 uM) and 23.7 nM (input ligand: none).
For “UUCUUUGUUGUGAGGAUAUCGUAUUCUUUUUGUUACGAGAAGGCACAUGAGGAUCACCCAUGUUUCUUGAUGUU [JR_BMOE4_Sub068] (puzzle: Brourd's mod of Exclusion 4)”, the “apparent KD of MS2 coat protein” value under setting [2] is 16.7 nM.
On to “GAAUGAGAGCAGGAUAUCUUAUAAAUGUAUGAAAGAGAAGGGCUCACAUGAGGAUCACCCAUGUGGUCCUAGAA [jl-ex6-4.78 jandersonlee mod] (Eterna round: R97, puzzle: Exclusion 6)”, for which the “apparent KD of MS2 coat protein” value worked out at 506 nM (input ligand: FMN 200 uM) and 36.9 nM (input ligand: none).
The corresponding values for “CUUUUGUGAGGAUAUGGUAACGUUUACAUGAGGAUCACCCAUGUUUCAUGGGACUUGAGACUAGAAGGCACUAACG [JR_Ex5_Sub027] (Eterna round: R97, puzzle: Exclusion 5)” are 516 nM and 823 nM.
As for “GCUGCAAAUGUAGGAUAUCUGCACGUUUAGUGCAGAGAAGGACAUGAGGAUCACCCAUGUAGAUCAGCAGCAAUUAAUUUAAUU [ENG1/5-A2] (Eterna round: R96, puzzle: Exclusion NG 1)”, the “apparent KD of MS2 coat protein” value runs as follows: (input ligand: FMN 200 uM) 480 nM; under setting [4], 40.8 nM; (input ligand: none) 45.2 nM.
As for “CUCGUAUUAUACAUGAGGAUCACCCAUGUGGUCACCACUCACGAGGAUAUCCCGGGAAACCGAACGGAGAAGGUGUAGAGUCAU [Eternabot solution 44] (Eterna round: R96, puzzle: Exclusion NG 3)”, the “apparent KD of MS2 coat protein” value runs as follows: (input ligand: FMN 200 uM) 164 nM; under setting [4], 163 nM; (input ligand: none) 196 nM.
For “AAACCGCAAGGAUAUACUUGCGGUGGUGUUCGAAACUUUCUACUUGAGGAUCACCCAAGUAGAAGGUGCGGUAA [jl-ex2.4.71 ViennaUCT mod] (Eterna round: R97, puzzle: Exclusion 2)”, the “apparent KD of MS2 coat protein” value was 13.2 nM (input ligand: FMN 200 uM) and 12.9 nM (input ligand: none).
With “UUUAAUUUUUUUUUUUUACAAGCUUUUUGCUCGUCUUAUACAUGAGGAUCACCCAUGUGGGUGAGGGAUAAAUUAUC [JMF 42] (puzzle: Sensor v3, turn-off variant 2)”, the “apparent KD of MS2 coat protein” value is, setting by setting: under setting [1], 16.3 nM; under setting [2], 27.2 nM; under setting [3], 574 nM.
In the case of “GAUCAUGCAGGAUAUACAGUAUCCAUGAAAACAUGGAUCUCACAUGAGGAUCACCCAUGUAGAAGGGCAUGAUC [Omei Ex2 A25] (Eterna round: R97, puzzle: Exclusion 2)”, the “apparent KD of MS2 coat protein” value (input ligand: FMN 200 uM) was 40.1 nM and the “apparent KD of MS2 coat protein” value (input ligand: none) worked out at 41.4 nM.
As to “CUCCUCAUGGCGCCUAAACACAUGAGGAUCACCCAUGUACAGGCUUUUUGCCGUCUUAUAAUAAAACCGAGGAUACG [Raaen] (puzzle: Sensor v3, turn-off variant 1)”, the “apparent KD of MS2 coat protein” value under setting [1] came out at 76.3 nM, the “apparent KD of MS2 coat protein” value under setting [2] came to 167 nM and the “apparent KD of MS2 coat protein” value under setting [3] amounted to 149 nM.
Consider “AUCAGCUCGUCAGGAUAUACAUGAGGAUCACCCAUGUGAUCAAUAGCAGCUUCGGCUGCAUACAUGUAGAAGGGACGAGCUGAU [ENG2/6-B3] (Eterna round: R96, puzzle: Exclusion NG 2)”, for which the “apparent KD of MS2 coat protein” value by setting is: (input ligand: FMN 200 uM) 50 nM; under setting [4], 234 nM; (input ligand: none) 821 nM.
“AAUAAACAAGCGAGAUCCUACAUGAGGAUCACCCAUGUGCUCGUCUUAUAAAGUACUAUCACGAAAGUGAUAGUACA [Mat - Sensor v3 - turn-off var 1 - Eli Mod - D65] (puzzle: Sensor v3, turn-off variant 1)”: the “apparent KD of MS2 coat protein” value was 16.1 nM under setting [1], 41.5 nM under setting [2] and 15.3 nM under setting [3].
In the case of “AGAUGGCGAGGAUAUACAUGAGGAUCACCCAUGUGAAGAAGAAUAGUGAGGAAGAAAAGUAGAAGGCGCUGUCA [Mat - Exclusion 3 - Mod of Salish D32] (puzzle: Exclusion 3)”, under setting [2], the “apparent KD of MS2 coat protein” value is 49.4 nM.
With “AGCAUCUGAGGAUAUACUGGGUAUGGAAGGCGAAGGGCCAGACAUGAGGAUCACCCAUGUAGAAGGCAGUUUGC [Esenonan] (puzzle: Exclusion 2)”, the “apparent KD of MS2 coat protein” value under setting [2] came out at 78.4 nM.
As to “GAAAAGGUAGGAUAUACUAAAAAAAAGGGUAGAAAAAAAACACAUGAGGAUCACCCAUGUAGAAGGACCAAAAG [salish99_ex2_r3_058] (puzzle: Exclusion 2)”, the “apparent KD of MS2 coat protein” value came to 48.2 nM under setting [1], 31.8 nM under setting [2] and 20.8 nM under setting [3].
“GCUGGUCGAGGAUAUACAUUCGUGCUUCGGCACGUAAGAUCACAUGAGGAUCACCCAUGUAGAAGGCGACCAGC [E2/5-A1] (Eterna round: R97, puzzle: Exclusion 2)”: the “apparent KD of MS2 coat protein” value was 930 nM (input ligand: FMN 200 uM) and 112 nM (input ligand: none).
“GUGUAGUCAGGAUAUACAUAGGAAGAGAAGAUAAGAUAAGCACAUGAGGAUCACCCAUGUAGAAGGGACAGUGU [Excluse me!! 2 - Jieux - Exclusion 2] (puzzle: Exclusion 2)”: the “apparent KD of MS2 coat protein” value runs as follows: under setting [1], 77.6 nM; under setting [2], 66.1 nM; under setting [3], 61 nM.
Consider “CUUGUGCAACAGGAUAUGUGCACGGCAGUAGCAACAGAAGGGUUGACAUGAGGAUCACCCAUGUUUACAAAGCG [Eternabot (Original) Solution 35] (Eterna round: R97, puzzle: Exclusion 6)”, for which the “apparent KD of MS2 coat protein” value (input ligand: FMN 200 uM) worked out at 132 nM and the “apparent KD of MS2 coat protein” value (input ligand: none) is 137 nM.
Turning to “AGAAAUGCCCAUGACCGCAAGCUUUUUGCUUGUCUUACCACAUGAGGAUCACCCAUGUGACAUGGGCUCCUGAUAAU [Onlaleti] (puzzle: Sensor v3, turn-off variant 2)”, the “apparent KD of MS2 coat protein” value under setting [1] turned out to be 14.7 nM, the “apparent KD of MS2 coat protein” value under setting [2] is 11.4 nM and the “apparent KD of MS2 coat protein” value under setting [3] stood at 12.3 nM.
With “UUUAUACAUGAGGAUCACCCAUGUGAGGAUAUGCUUUAUUAUUAUUAUUAUUAUUAUUGCAGAAGGUACAUUAU [LRO-Excl01-14] (Eterna round: R97, puzzle: Exclusion 1)”, the “apparent KD of MS2 coat protein” value by setting is: (input ligand: FMN 200 uM) 35.7 nM; (input ligand: none) 37.7 nM.
With “GGUGGACAUGAGGAUCACCCAUGUGAGGAUAUCGGCCGGCUAGUGGCGGCUGGCUUCUCGAGAAGGCGCAUAGU [Exclusion 1 V77] (puzzle: Exclusion 1)”, the “apparent KD of MS2 coat protein” value under setting [2] is 37.3 nM.
